In assay [1] the target is T1, human serum albumin (human, UniProt P02768 25-609).
T1 construct: also called HSA
Briefly: SPR (Biacore), HSA amine-coupled on CM5, pH 7. For orientation: In SPR one partner is held on a chip, and binding of the other changes the refractive index at the surface.

The target in assay [2] is T1, human serum albumin. Briefly: SPR (Biacore), ratio of the off rates at the two pH.
Assay [3] concerns the target T1, human serum albumin. Briefly: SPR (Biacore), HSA amine-coupled on CM5, pH 5.
The target in assay [4] is T2, human pIgR overexpressed in MDCK cells (human, UniProt P01833 19-764).
T2 construct: whole, on cells; also called hpIgR; human polymeric immunoglobulin receptor
Briefly: immunofluorescence on MDCK cells overexpressing human pIgR, 3 uM purified Nanobody at 4C, anti-myc detection.

The target of assay [5] is T3, ectodomain of human pIgR (R&D Systems Cat #2717-PG) (human, UniProt P01833 19-638).
T3 construct: extracellular domain; Immobilised on Maxisorp plates at 5 ug/ml; also called pIgR ectodomain
Briefly: competition ELISA, dilution series of purified Nanobody against 1 ug/ml IgA on immobilised pIgR ectodomain. For orientation: An ELISA detects its analyte on a solid surface through an enzyme-linked reagent.

The target in assay [6] is T2, human pIgR overexpressed in MDCK cells. Briefly: immunoprecipitation from cell lysates with His-tagged nanobodies on talon beads, blot with a-hSC.

As a reminder, the koff is the first-order rate constant of dissociation. Read a low koff as slow dissociation.

T2 sequence (P01833 19-764): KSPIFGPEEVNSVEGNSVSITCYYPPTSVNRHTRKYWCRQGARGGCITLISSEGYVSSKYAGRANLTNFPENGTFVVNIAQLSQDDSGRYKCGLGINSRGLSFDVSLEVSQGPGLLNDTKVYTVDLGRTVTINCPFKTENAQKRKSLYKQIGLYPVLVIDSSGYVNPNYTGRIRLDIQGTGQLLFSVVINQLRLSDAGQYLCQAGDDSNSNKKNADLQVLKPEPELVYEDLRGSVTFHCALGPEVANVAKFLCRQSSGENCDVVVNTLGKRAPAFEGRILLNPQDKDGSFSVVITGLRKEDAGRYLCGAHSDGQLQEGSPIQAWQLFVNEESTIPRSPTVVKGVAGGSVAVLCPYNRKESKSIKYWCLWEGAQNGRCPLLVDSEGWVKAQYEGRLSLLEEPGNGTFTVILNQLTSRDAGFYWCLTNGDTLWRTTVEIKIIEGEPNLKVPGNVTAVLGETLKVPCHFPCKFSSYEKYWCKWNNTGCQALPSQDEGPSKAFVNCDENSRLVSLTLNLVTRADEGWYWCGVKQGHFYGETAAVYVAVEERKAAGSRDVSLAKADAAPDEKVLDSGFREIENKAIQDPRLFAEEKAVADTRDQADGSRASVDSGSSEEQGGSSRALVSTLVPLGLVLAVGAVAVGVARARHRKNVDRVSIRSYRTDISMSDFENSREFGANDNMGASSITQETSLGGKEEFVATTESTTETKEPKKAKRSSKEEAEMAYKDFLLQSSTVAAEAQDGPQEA
T3 sequence (P01833 19-638): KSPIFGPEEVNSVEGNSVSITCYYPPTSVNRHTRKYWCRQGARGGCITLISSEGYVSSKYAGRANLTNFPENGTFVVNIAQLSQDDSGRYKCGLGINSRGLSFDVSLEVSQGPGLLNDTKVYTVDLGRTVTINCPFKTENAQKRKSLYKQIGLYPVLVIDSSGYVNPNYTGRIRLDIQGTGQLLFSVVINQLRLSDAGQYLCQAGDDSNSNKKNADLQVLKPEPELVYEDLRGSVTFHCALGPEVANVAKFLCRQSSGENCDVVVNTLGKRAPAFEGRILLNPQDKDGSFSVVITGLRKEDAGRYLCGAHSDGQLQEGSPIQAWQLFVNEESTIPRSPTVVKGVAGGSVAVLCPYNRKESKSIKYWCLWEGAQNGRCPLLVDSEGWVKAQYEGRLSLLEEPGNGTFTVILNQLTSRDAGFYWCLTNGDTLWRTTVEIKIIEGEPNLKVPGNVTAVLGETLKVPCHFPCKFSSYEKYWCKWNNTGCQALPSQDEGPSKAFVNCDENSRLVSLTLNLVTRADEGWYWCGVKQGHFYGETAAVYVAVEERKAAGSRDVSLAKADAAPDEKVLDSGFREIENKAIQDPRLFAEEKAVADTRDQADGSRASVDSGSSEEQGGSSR

B1: 4B8 (VHH)
VHH: EVQLVESGGGLVQAGGSLRLSCAASGGTYSGNAMAWFRQAPGKEREFVAGIDWSSENTRYIDSVKGRFTISRDNAKNTMYLQMNSLKPEDTAVYYCAAGTSWGALASRLEAAYSSWGQGTQVTVSS
notes: Tested as periplasmic extract
Consider B1, for which the koff worked out at 0.000741 s⁻¹ with human serum albumin [1] and 0.0018 s⁻¹ with human serum albumin [3]. The “Ratio pH 7/pH 5” value with human serum albumin [2] is 2.43.

B2: 4B6 (VHH)
VHH: KVQLVESGGGLVQVGGSLRLSCVASGRTYGGNAMAWFRQAPGKEREFVAGIDWSSENTRYTDSVKGRFTISRDNAKNTMYLQMNSLKPEDTAVYYCAAGTSWGALASRLENAYSAWGQGTQVTVSS
notes: Tested as periplasmic extract
As to B2, the koff with human serum albumin [1] was 0.000368 s⁻¹; with human serum albumin [3], 0.00119 s⁻¹. The “Ratio pH 7/pH 5” value in the assay with human serum albumin [2] was 3.23.

B3: 4B5 (VHH)
VHH: EVQLVESGGGLVQAGDSLRLSCAASGRTYSRNAMAWFRQAPGKEREFVAGIDWSSENTRYIDSVKGRFTISRDNAKSTMYLQMNSLKPEDTAVYYCAAGTSWGALASRLEAAYSSWGQGTQVTVSS
notes: Tested as periplasmic extract
On to B3, for which the koff in the assay with human serum albumin [1] worked out at 0.00174 s⁻¹; with human serum albumin [3] it was 0.00403 s⁻¹. The “Ratio pH 7/pH 5” value in the assay with human serum albumin [2] was found to be 2.32.

B4: 4D3 (VHH)
VHH: EVQLVKSGGGLVQPGGSLRLSCAASGFTFSHYQMSWVRQAPGKDVEWVSSISMLGGGTTYADSVKGRFTISRDNAKSTLVLQMNNLKVEDTAVYYCARGFSGNYYRADLGQGTQVTVSS
notes: Tested as periplasmic extract
Consider B4, for which the dissociation rate constant (koff) is 0.00565 s⁻¹ with human serum albumin [1] and 0.0137 s⁻¹ in the assay with human serum albumin [3]. The “Ratio pH 7/pH 5” value with human serum albumin [2] amounted to 2.42.

B5: 4D4 (VHH)
VHH: EVQLVESGGGLVQAGDSLRLSCAASGRTFSPYVMGWFRRAPGKEREFVGGINWSGSNTWYTDSVKGRFTISRDNVKNMVYLQMNSLKPEDTAVYYCAAGSGVGMYRYERQYDYWGQGTQVTVSS
notes: Tested as periplasmic extract
Take B5: the koff with human serum albumin [1] is 0.00602 s⁻¹; with human serum albumin [3], 0.0166 s⁻¹. The “Ratio pH 7/pH 5” value with human serum albumin [2] came to 2.76.

B6: 4A6 (VHH)
VHH: EVQLVESGGGLVQPGGSLRLSCAASPFTLDYYAIGWFRQAPGKEREGVSCSTSHGKTYHADSVKGRFTISRDNAKNTVYLQMNSLKPEDTAVYYCAAGACMGGSGYEADFGSWGQGTQVTVSS
notes: Tested as periplasmic extract
As for B6, the values for the koff with human serum albumin [1] and with human serum albumin [3] were 0.00173 s⁻¹ and 0.00999 s⁻¹, respectively. In the assay with human serum albumin [2], the “Ratio pH 7/pH 5” value came to 5.77.

B7: 4B1 (VHH)
VHH: EVQLVESGGGLVQPGGSLRLSCVAAGFTLDYYAIGWFRQAPGKEREGVSCITSDGRTYYADSVKGRFTISRDMAKKMVYLQMNSLKPEDTAVYYCAAGACMGGSGYEADFGSWGQGTQVTVSS
notes: Tested as periplasmic extract
As for B7, the koff with human serum albumin [1] was determined as 0.00875 s⁻¹; with human serum albumin [3], 0.00773 s⁻¹. Moreover, the “Ratio pH 7/pH 5” value with human serum albumin [2] is 0.88.

B8: 1D2 (VHH)
VHH: EVQLVESGGGLVQPGGSLRLSCAASGFTLDYYAIGWFRRAPGKEREGVSCTSSSDGSTYYADSVKGRFTISRDNAKNTVYLQMNSLKPEDTAVYYCATTFGDACTVVAGIPDQYDFGSWGQGTQVTVSS
notes: Carries myc and His tags
For B8, the binding result in assay [4] and in assay [5] was “binds” in each case.

B9: 4D9 (VHH)
VHH: EVQLVESGGGLVQPGGSLRLSCAASGFTLDYYDIGWFRQAPGKEREGVSCTSSSDGSTYYADSVKGRFTISRDNAKNTVYLQMNSLKPEDTAVYYCATTFGDACTVVAGIPDQYDFGSWGQGTQVTVSS
Regarding B9, the binding result in assay [5] is “binds”.

B10: 4C3 (VHH)
VHH: EVQLVESGGGLVQAGGSLRLSCAASGRTFSSYAMAWFRQAPGEEREFVATISVSGGYTYYADSVKGRFTISRDNAKNTVYLQMNTLKPEDTAVYYCAAGDSSSWLEHMYDYWGQGTQVTVSS
notes: Tested as periplasmic extract
Regarding B10, the koff with human serum albumin [1] came out at 0.00112 s⁻¹; with human serum albumin [3] it was 0.00375 s⁻¹. Moreover, in the assay with human serum albumin [2], the “Ratio pH 7/pH 5” value came to 3.35.

B11: 4A9 (VHH)
VHH: EVQLVESGGGLVQAGGSLRLSCEASGFTLDYSGVGWFRQAPGKERELVSCISRGGDRAGYANSVKGRFTMSRDNAKNILYLQMNSLKPEDTAVYYCAATHSGSGCYDGAIDYWGKGTLVTVSS
notes: Tested as periplasmic extract
For B11, the results for the dissociation rate constant (koff) with human serum albumin [1] and with human serum albumin [3] were 0.013 s⁻¹ and 0.00701 s⁻¹, respectively. Moreover, the “Ratio pH 7/pH 5” value with human serum albumin [2] is 0.54.

B12: 4B11 (VHH)
VHH: EVQLVESGGGLVQPGGSLRLSCAASGFTLDYYAIGWFRQAPGKEREGVSCISSSDMSDGITYYADSVKGRFTSSRDNVKNTVYLQMNSLKPEDTAVYYCATTFGDACTVVAGIPDQADFDSWGQGTQVTVSS
notes: Carries myc and His tags
B12: the binding result in assay [4] and in assay [5] was “binds” throughout.

B13: 4C4 (VHH)
VHH: EVQLVESGGGLVQAGDSLRLSCAASGRPFMSYVMGWFRRAPGKEREFVGGINWGSGNTWYTDSVLGRFTISRDNAKNTVYLQMNSLKPEDTAVYYCATAAGVGYYRYERQYDYWGQGTQVTVSS
notes: Tested as periplasmic extract
As to B13, the results for the koff with human serum albumin [1] and in the assay with human serum albumin [3] were 0.000499 s⁻¹ and 0.00121 s⁻¹, respectively. In addition, the “Ratio pH 7/pH 5” value with human serum albumin [2] stood at 2.42.

B14: 4C5 (VHH)
VHH: EVQLVESGGGLVQAGDSLRLSCAASGRPFSAYVMGWFRRAPGKEREFVGGINWNSANTWYTDSVLGRFTISKDNAKNTVYLQMNSLKPEDTAVYYCAAAGGVGYYRYERQYDYWGQGTQVTVSS
notes: Tested as periplasmic extract
Regarding B14, the koff in the assay with human serum albumin [1] is 0.000541 s⁻¹; with human serum albumin [3] it was 0.00132 s⁻¹. In the assay with human serum albumin [2], the “Ratio pH 7/pH 5” value was found to be 2.44.

B15: 4D7 (VHH)
VHH: EVQLVESGGGLVQAGDSLRLSCAASGRPFSSYVMGWFRRAPGKEREFVGGINWNSGNTWYSDSVLGRFTISRDNAKNTVDLQMNSLKPEDTAVYYCATASGVGYYRYERQYDYWGQGTQVTVSS
notes: Tested as periplasmic extract
On to B15, for which the koff with human serum albumin [1] came to 0.000653 s⁻¹; with human serum albumin [3], 0.00158 s⁻¹. Moreover, the “Ratio pH 7/pH 5” value with human serum albumin [2] is 2.42.

B16: 4D10 (VHH)
VHH: EVQLVESGGGLVQAGDSLRLSCTASERPFMSYVMGWFRRAPGKDREFVGAITWSGINTWYSDSVLGRFTISRDNAKNTVYLQMNSLKPEDTAVYYCAVADGVGLYRYERQYDYWGQGTQVTVSS
notes: Tested as periplasmic extract
For B16, the figures for the koff in the assay with human serum albumin [1] and in the assay with human serum albumin [3] were 0.000523 s⁻¹ and 0.00341 s⁻¹, respectively. Moreover, the “Ratio pH 7/pH 5” value with human serum albumin [2] is 6.52.

B17: 4C9 (VHH)
VHH: EVQLVESGGGLVQAGDSLRLSCTASERPFSTYVMGWFRRAPGKEREFVGGITWSGINAWYTDSVLGRFTISSDNAKNTVYLQMNSLKPEDTAVYYCAAASGVGRYRYELQYDYWGQGTQVTVSS
notes: Tested as periplasmic extract
For the molecule B17, the koff with human serum albumin [1] was found to be 0.000441 s⁻¹; with human serum albumin [3], 0.00171 s⁻¹. Further, in the assay with human serum albumin [2], the “Ratio pH 7/pH 5” value came to 3.88.

B18: 4C8 (VHH)
VHH: EVQLVESGGGLVQAGDSLRLSCAASGRTYTPYVMGWFRRAPGKEREFVGAVSWSGTNTWYTDSVKGRFTISRDNAKNTVYLQMNSLKPEDTAVYYCAAGDGVGIYRYEHQYDYWGQGTQVTVSS
notes: Tested as periplasmic extract
Take B18: the figures for the koff with human serum albumin [1] and with human serum albumin [3] were 0.000624 s⁻¹ and 0.00209 s⁻¹, respectively. Moreover, the “Ratio pH 7/pH 5” value with human serum albumin [2] worked out at 3.35.

B19: 4B7 (VHH)
VHH: EVQLVESGGGLVQAGGSLRLSCAASGFTFDDYAIGWFRQAPGKEREGVSCISSRDGITYYADSVKGRFTISSDNAKNTVYLQMNSLKPEDTAVYYCAADLVGSFPCPVAAYDYWGQGTQVTVSS
notes: Carries myc and His tags
B19: the binding result in assay [6] was “binds”.

B20: 4A2 (VHH)
VHH: EVQLVESGGGLVQAGGSLRLSCAASGLSFSSYAMGWFRQAPGKEREFVAAIRRREGNSYYADSVKGRFTISRDSAKNTVYLQMNSLKPEDTALYSCAATAPHYSGSFAYAGGYDYWGQGTQVTVSS
notes: Tested as periplasmic extract
As for B20, the dissociation rate constant (koff) worked out at 0.00642 s⁻¹ with human serum albumin [1] and 0.0227 s⁻¹ in the assay with human serum albumin [3]. In the assay with human serum albumin [2], the “Ratio pH 7/pH 5” value turned out to be 3.54.

B21: 4D5 (VHH)
VHH: EVQLVESGGGLVQAGGSLRLSCAASGLSFSKYAMGWFRQAPGKQREYVAVISSSDTTYYTNSAKGRFTISRDNAENTVYLQMNSLKPEDTAVYFCAADSYVTALQTLTQISYWGQGTQVTVSS
notes: Tested as periplasmic extract
Turning to B21, the off-rate constant (koff) with human serum albumin [1] amounted to 0.0204 s⁻¹; with human serum albumin [3], 0.0263 s⁻¹. In addition, the “Ratio pH 7/pH 5” value with human serum albumin [2] is 1.29.

B22: 4C11 (albumin binder) (VHH)
VHH: EVQLVESGGGLVQAGGSLRLSCAASGLSFSRYAMGWFRQAPGKQREYVAVISSSDTTYYTNSAKGRFTISRDNAENTVYLQMNSLKPEDTAVYFCAADSFVTALQTLTQINYWGQGTQVTVSS
notes: Tested as periplasmic extract
With B22, the koff with human serum albumin [1] is 0.0263 s⁻¹; with human serum albumin [3], 0.0312 s⁻¹. The “Ratio pH 7/pH 5” value with human serum albumin [2] stood at 1.19.

B23: 4B10 (VHH)
VHH: EVQLVESGGGLVQAGDSLRLSCAASGRTFSSYAMGWFRQAPGTERQFVARITGKGDSTDYADSVRGRFTISRDNAKNTVYLQMNSLKPEDTAVYYCAADAFNSLLQAGRAEYWGQGTQVTVSS
notes: Tested as periplasmic extract
For B23, the koff amounted to 0.0499 s⁻¹ in the assay with human serum albumin [1] and 0.0434 s⁻¹ in the assay with human serum albumin [3]. In addition, the “Ratio pH 7/pH 5” value with human serum albumin [2] worked out at 0.87.

B24: 1E7 (VHH)
VHH: EVQLVESGGGLVQAGGSLRLSCAASGRTFSNYVMGWFRQAPGKEREFVAAISWSGVTTYHYSADSVKGRFTTSRDNDRNTAHLQMNSLKPEDTAVYYCAARGRTGSDPRKGDDYDYWGQGTQVTVSS
notes: Carries a myc tag (detected with anti-myc)
On to B24, for which the binding result in assay [4] and in assay [5] was “binds” in each case.
